Assay results reported in patent US20240076386A1 (Pfizer, published 2024).
Where a chain is given by its changes, count along the chain named.

B1: optimized anti-E-selectin antibody 1282 (antibody, human IgG1, kappa, V domains shown)
VH: EVQLVESGGGLVQPGGSLRLSCAASGYAIRSAYMHWVRQAPGKGLEWVARIDPANGNTIYVDSVEGRFTISADNAKNSAYLQMNSLRAEDTAVYYCAMDLYSTSEYWGQGTLVTVSS
VL: DIQMTQSPSSLSASVGDRVTITCKTSQNIERYLNWYQQKPGKAPKLLIYAASSLQSGVPSRFSGSGSGTDFTLTISSLQPEDFATYFCLQDNAWPLTFGQGTKVEIKR
notes: effector-null human IgG1, kappa
B2: optimized anti-E-selectin antibody 1284 (antibody, human IgG1, kappa, V domains shown)
VH: B1 VH with D62E
VL: B1 VL
notes: as for B1
B3: optimized anti-E-selectin antibody 1444 (antibody, human IgG1, kappa, V domains shown)
VH: B1 VH with E65T
VL: B1 VL
notes: as for B1
B4: optimized anti-E-selectin antibody 1448 (antibody, human IgG1, kappa, V domains shown)
VH: B1 VH with E65K, G66E
VL: B1 VL
notes: as for B1

Key:
[1] = target: T1, cynomolgus monkey E-selectin extracellular domain with 10 His purification tail (cynomolgus monkey, UniProt P16581 22-554 (human entry)); experiment: SPR, antibody captured, E-selectin analyte
T1 construct: also called cynomolgus E-selectin; truncated cynomolgus monkey E-selectin
T1 chain: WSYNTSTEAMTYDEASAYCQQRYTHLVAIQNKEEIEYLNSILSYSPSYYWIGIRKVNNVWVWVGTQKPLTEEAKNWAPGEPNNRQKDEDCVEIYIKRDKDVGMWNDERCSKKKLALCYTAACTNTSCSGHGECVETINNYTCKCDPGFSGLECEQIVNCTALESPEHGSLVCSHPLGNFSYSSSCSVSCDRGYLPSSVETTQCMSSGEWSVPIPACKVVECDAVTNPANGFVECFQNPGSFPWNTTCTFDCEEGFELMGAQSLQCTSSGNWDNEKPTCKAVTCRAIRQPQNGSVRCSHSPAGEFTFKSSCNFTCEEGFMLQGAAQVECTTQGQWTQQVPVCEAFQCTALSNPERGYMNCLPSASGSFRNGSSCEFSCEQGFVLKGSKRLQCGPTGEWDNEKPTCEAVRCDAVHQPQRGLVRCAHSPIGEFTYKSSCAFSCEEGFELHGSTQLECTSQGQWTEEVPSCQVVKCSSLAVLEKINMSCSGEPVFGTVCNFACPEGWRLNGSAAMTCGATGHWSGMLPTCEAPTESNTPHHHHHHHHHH
Description: All flow cells were blocked with 1M Ethanolamine-HCl (ETH) for 7 minutes at 10 μL/minute. Final immobilization level of the capture antibody was approximately 10,000 resonance units (RU). The running buffer for immobilization and kinetics was HBS-EP+(10 mM 4-(2-hydroxyethyl)-1-piperazineethanesulfonic acid (HEPES) pH 7.4, 150 mM sodium chloride, 3 mM ethylenediaminetetraacetic acid (EDTA), 0.05% (v/v) Tween-20).
To characterize binding of antibodies to human, cynomolgus monkey, and mouse E-selectin, an antibody was diluted to 0.5 μg/mL in HBS-EP+ and captured by the anti-human IgG immobilized on flow cells 2, 3 and 4 for 30 seconds to 1 minute at a flow rate of 10 μL/minute to achieve a capture level of 70 to 300 RU. Flow cell 1 was used as a reference surface. […] HBS-EP+ buffer cycles collected for each captured antibody were used for double-referencing (Myszka D G. J. Mol. Recognition 1999; 12(5):279-84). At the end of each cycle, the entire anti-IgG surface was regenerated by a 30 second pulse of 3 M MgCl₂ and a 30 second pulse of ionic buffer (1.83 M MgCl₂, 0.92 M Urea, 1.83 M Guanidine HCl, pH 7.4) (Andersson K. Analy. Chem. 1999; 71(13): 2475-81). Kinetic assays were conducted at 25° C. at a collection rate of 10 Hertz (Hz) on a BIAcore™ T200 instrument (GE Healthcare). Rate constants and affinities were determined by fitting the data to a 1:1 binding model in BIAcore™ T200 Evaluation software version 3.0 (GE Healthcare).
This was done by first binding the antibody to immobilized anti-human IgG. After antibody capture, dilutions of the E-selectin proteins were flowed over and the association rate constant (ka), disassociation rate constant (kd), t½, and KD values were determined for binding to human and cynomolgus (Table 26).

[2] = target: T2, human E-selectin coated on the plate of the competition binding ELISA (human, UniProt P16581 22-556, limits assumed); experiment: competition ELISA (Biotin-164 competitive ELISA) on plate-coated human E-selectin; competitor: biotinylated antibody 0164, OD450; forced degradation samples T0, T2, T4 weeks at 40 C in Tris, His or Glu buffer
T2 sequence (looked up): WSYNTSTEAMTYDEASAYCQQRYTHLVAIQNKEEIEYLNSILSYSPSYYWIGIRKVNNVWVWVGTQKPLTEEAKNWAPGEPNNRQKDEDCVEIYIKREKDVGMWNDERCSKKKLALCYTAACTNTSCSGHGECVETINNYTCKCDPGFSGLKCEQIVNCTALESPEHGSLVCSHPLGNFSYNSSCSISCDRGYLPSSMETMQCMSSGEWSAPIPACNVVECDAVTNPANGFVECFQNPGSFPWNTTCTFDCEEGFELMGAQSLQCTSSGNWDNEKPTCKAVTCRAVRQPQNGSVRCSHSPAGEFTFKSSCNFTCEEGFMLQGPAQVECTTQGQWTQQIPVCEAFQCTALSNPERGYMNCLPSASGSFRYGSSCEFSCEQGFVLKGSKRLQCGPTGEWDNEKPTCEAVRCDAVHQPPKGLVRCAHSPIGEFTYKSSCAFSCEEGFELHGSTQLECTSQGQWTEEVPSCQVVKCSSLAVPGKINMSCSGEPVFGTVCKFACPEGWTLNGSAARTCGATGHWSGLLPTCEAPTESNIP
Description: To additionally asses stability of the forced degradation samples, the activity of the stressed samples was evaluated in a competition binding ELISA. […] The human E-selectin was stored in PBS with Ca/Mg at 500 μg/mL and was diluted with PBS with Ca/Mg to a concentration of 1 μg/mL. This was added to a 384 well MaxiSorp plate, sealed and incubated at 4° C. with gentle shaking overnight. The next day the reagents in each well were removed, followed by addition of 50 μL of blocking buffer (1% BSA in PBS with Ca/Mg) to each well. The wells were sealed and incubated at room temperature for about 1 hour with gentle shaking.
Next, the wash plate was blocked with 1% BSA with PBST (0.05% Tween) on a […] for 3 cycles using 80 μL for each wash. The plate was tapped on a paper towel to drain. […] The wash step was repeated with 3 cycles of 2 washes. Then, dilute Streptavidin-HRP (˜1/7500 diluted in blocking buffer) was added to each well and the plate was incubated at room temperature with gentle shaking ˜40 minutes to 1 hour. The wash step was again repeated with 3 cycles of 2 washes, tapped dry and followed by the addition of 25 μL of TMB substrate (one component HRP microwell substrate). This was followed by the addition of 25 μL of 0.18 M sulfuric acid to stop the reaction when the color reached saturation (determined by observing the color development). The OD450 measurement of the plate was then read on the Envision plate reader, and the data was analyzed with GraphPad, Prism7.

Kd [1] | koff [1] | kon [1] | t½ [1] | IC50 (read off the curve) [2] | Binder
78.3 nM | 0.0176 s⁻¹ | 227000 M⁻¹ s⁻¹ | 39.4 s | ~10 nM | B1
76.5 nM | 0.018 s⁻¹ | 236000 M⁻¹ s⁻¹ | 38.5 s | ~10 nM | B2
81.5 nM | 0.0171 s⁻¹ | 211000 M⁻¹ s⁻¹ | 40.5 s | ~10 nM | B3
67.8 nM | 0.015 s⁻¹ | 222000 M⁻¹ s⁻¹ | 46.2 s | ~9 nM | B4
